Results from patent US20260049151A1 (SHENGHE CHINA BIOPHARMACEUTICAL, published 2026).
Where two headings read alike, the source gives them in different places.

T1: Human-TNFR2-His (human, UniProt P20333 23-257)
T1 construct: Bought protein; also called human TNFR2 protein; TNFR2 protein; not shown: His tag
T1 sequence (looked up): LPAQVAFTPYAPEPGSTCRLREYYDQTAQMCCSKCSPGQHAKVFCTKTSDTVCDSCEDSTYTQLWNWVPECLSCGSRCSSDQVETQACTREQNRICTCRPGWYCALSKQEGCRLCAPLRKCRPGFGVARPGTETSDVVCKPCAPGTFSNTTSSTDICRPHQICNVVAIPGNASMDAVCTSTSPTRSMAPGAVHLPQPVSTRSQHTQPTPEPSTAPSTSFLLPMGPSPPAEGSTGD

T2: Human TNFR2 mFc (human, UniProt P20333 23-257)
T2 construct: Bought protein; not shown: mFc
T2 sequence (looked up): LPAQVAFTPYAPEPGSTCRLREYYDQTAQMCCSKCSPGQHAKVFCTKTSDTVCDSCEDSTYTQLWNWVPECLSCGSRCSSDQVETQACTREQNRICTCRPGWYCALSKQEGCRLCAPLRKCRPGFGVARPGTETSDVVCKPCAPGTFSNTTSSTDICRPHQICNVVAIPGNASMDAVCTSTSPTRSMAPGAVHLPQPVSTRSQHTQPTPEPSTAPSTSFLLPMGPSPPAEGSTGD


Columns and labels:
Human-TNFR2-His [1] = target: T1, Human-TNFR2-His; test: BLI, antibody on AHC sensor, 100 nM TNFR2-His in solution
Description: The AHC sensor was soaked in 0.02% PBST (0.02% Tween 20, pH 7.4, 1×PBS) as a buffer for 600 s to remove the sucrose covering the sensor surface. The AHC sensor was equilibrated with 0.02% PBST (0.02% Tween 20, pH 7.4, 1×PBS) as a buffer for 60 s, the antibody in the sample plate was solidified for 300 s, and the secondary equilibration buffer was used for 180 s. 100 nM human-TNFR2-His (manufacturer: SINO, CAT: 10417-H08H, LOT: LC15NO0412) protein was bound to the antibody for 300 s and then dissociated for 600 s. After dissociation, 10 mM glycine (pH 2.0) was used as a regeneration buffer for 30 s. The sensor was regenerated with 10 mM glycine (pH 2.0).

Human-TNFR2-His [2] = target: T1, Human-TNFR2-His; test: ELISA: Human-TNFR2-His coated (0.1 ug/mL), antibody titrated, goat anti-human IgG Fc detection (Example 2)
Description: (§1) Human-TNFR2-His (manufacturer: SINO, CAT: 10417-H08H, LOT: LC15NO0412) was diluted to 0.1 μg/mL with a coating solution (1×PBS, pH7.4), and coated in 96-well ELISA plate at 100 µL/well overnight at 4° C. The coating solution was poured off. Each well was washed with 1×PBST at 300 μL, washed 4 times with a plate washer, and patted dry on a flat paper. It was blocked with 3% skim milk powder at 300 μL/well, and incubated at 37° C. for 1 h. The blocking solution was poured off, washed 4 times with a plate washer, and patted dry on a flat paper. Negative control and positive control were set up. […] The positive control and antibody were diluted to 10 μg/mL with 3% skim milk powder as the starting concentration, and then diluted by 3-fold gradient (11 gradients in total), and a blank well was set up and only the diluent was added. It was incubated at 37° C. for 1 h at 100 μL/well. The liquid in the well was discarded, washed 4 times with a plate washer, and patted dry on a flat paper. Goat anti-human IgG Fc was diluted with 3% skim milk powder at 1:10000, and incubated at 37° C. for 1 h at 100 μL/well. It was washed 6 times with a plate washer, and patted dry on a flat paper. TMB color developing solution was added at 100 μL/well, and wrapped with aluminum foil. Color development was performed at 37° C. in the dark for 8 min. Termination solution 1M HCl was added to terminate the color development reaction at 100 μL/well. Readings were taken at 450 nm on an ELISA reader.

Human-TNFR2-His [3] = target: T1, Human-TNFR2-His; test: as above; remark: listed apart in the source
Description: as §1

Human-TNFR2-His [4] = target: T1, Human-TNFR2-His; test: as above; remark: listed apart in the source
Description: as §1

Human-TNFR2-His [5] = target: T1, Human-TNFR2-His; test: as above; remark: listed apart in the source
Description: as §1

Human 4-1BB His = target: T3, Human 4-1BB His (human, UniProt Q07011 24-186); test: ELISA: Human 4-1BB His coated (0.2 ug/mL), antibody titrated, goat anti-human IgG Fc detection (Example 3)
T3 construct: Bought protein; lots 198-2146F1-W6 and 2407c-214FF1-YC; also called human 4-1BB protein; 4-1BB protein; not shown: His tag
Description: Human 4-1BB His (manufacturer: Acro, CAT: 41B-H5258, LOT: 198-2146F1-W6) was diluted to 0.2 μg/mL with a coating solution (1×PBS, pH7.4), and coated in 96-well ELISA plate at 100 μL/well overnight at 4° C. The coating solution was poured off. Each well was washed with 1×PBST at 300 μL, washed 4 times with a plate washer, and patted dry on a flat paper. It was blocked with 3% skim milk powder at 300 μL/well, and incubated at 37° C. for 1 h. The blocking solution was poured off, washed 4 times with a plate washer, and patted dry on a flat paper. Negative control and positive control were set up. […] The variable region of the antibody sequence of the positive control consists of SEQ ID NO: 15 and SEQ ID NO: 19, with the addition of the constant region of human IgG1 (SEQ ID NO: 46 and SEQ ID NO: 47). The positive control and antibody were diluted to 10 μg/mL with 3% skim milk powder as the starting concentration, and then diluted by 3-fold gradient (11 gradients in total), and a blank well was set up and only the diluent was added. It was incubated at 37° C. for 1 h at 100 μL/well. The liquid in the well was discarded, washed 4 times with a plate washer, and patted dry on a flat paper. Goat anti-human IgG Fc was diluted with 3% skim milk powder at 1:20000, and incubated at 37° C. for 1 h at 100 μL/well. It was washed 6 times with a plate washer, and patted dry on a flat paper. TMB color developing solution was added at 100 μL/well, and wrapped with aluminum foil. Color development was performed at 37° C. in the dark for 8 min. Termination solution 1M HCl was added to terminate the color development reaction at 100 μL/well. Readings were taken at 450 nm on an ELISA reader.

Human 4-1BB Fc = target: T4, Human 4-1BB Fc (human, UniProt Q07011 24-186); test: bridging ELISA: Human 4-1BB Fc coated (0.3 ug/mL), antibody titrated, then Human-TNFR2-His (0.3 ug/mL), HRP anti-His detection (Example 4)
T4 construct: same catalogue and lot number as Human 4-1BB His; not shown: Fc
Description: Human 4-1BB Fc (manufacturer: Acro, CAT: 41B-H5258, LOT: 198-2146F1-W6) was diluted to 0.3 μg/mL with a coating solution (1×PBS, pH7.4) and coated into a 96-well ELISA plate at 100 µL/well at 4° C. overnight. The coating solution was poured off. Each well was washed with 1×PBST at 300 μL, washed 4 times with a plate washer, and patted dry on a flat sheet. It was blocked with 3% skim milk powder at 300 μL/well, and incubated at 37° C. for 1 h. The blocking solution was poured off, washed 4 times with a plate washer, and patted dry on a flat sheet. […] Starting at 50 nM, which was used as the initial concentration for 3-fold dilution, a total of 10 gradients were diluted, and a blank well was set up and only the diluent was added. It was incubated at 37° C. for 1 h at 100 μL/well. The liquid in the well was discarded, washed 4 times with a plate washer, and patted dry on a flat paper. Human-TNFR2-His (manufacturer: Sino, CAT: 10417-H08H, LOT: LC15NO0412) was diluted to 0.3 μg/mL, 100 μL was added to each well, and incubated at room temperature for 1 h. The plate was washed 3 times with PBST, and then the HRP-labeled his antibody was diluted with sample diluent at 1:5000, 100 μ L was added to each well, and incubated at room temperature for 1 h. It was washed 6 times with a plate washer, and patted dry on a flat paper. TMB color developing solution was added at 100 μL/well, and wrapped with aluminum foil. Color development was performed at 37° C. in the dark for 8 min. Termination solution 1M HCl was added to terminate the color development reaction at 100 μL/well. Readings were taken at 450 nm on an ELISA reader.

Human TNFR2 mFc = target: T2, Human TNFR2 mFc; test: bridging ELISA: Human TNFR2 mFc coated (0.3 ug/mL), antibody titrated, then Human 4-1BB His (0.3 ug/mL), HRP anti-His detection (Example 5)
Description: Human TNFR2 mFc (manufacturer: Kaixia, CAT: TN-HM3R2, LOT: 031202) was diluted to 0.3 μg/mL with a coating solution (1×PBS, pH7.4) and coated into a 96-well ELISA plate at 100 μL/well at 4° C. overnight. The coating solution was poured off. Each well was washed with 1×PBST at 300 μL, washed 4 times with a plate washer, and patted dry on a flat paper. It was blocked with 3% skim milk powder at 300 μL/well, and incubated at 37° C. for 1 h. The blocking solution was poured off, washed 4 times with a plate washer, and patted dry on a flat paper. […] Starting at 50 nM, which was used as the initial concentration for 3-fold dilution, a total of 10 gradients were diluted, and a blank well was set up and only the diluent was added. It was incubated at 37° C. for 1 h at 100 µL/well. The liquid in the well was discarded, washed 4 times with a plate washer, and patted dry on a flat paper. Human 4-1BB His (manufacturer: Acro, CAT: 41B-H5258, LOT: 198-2146F1-W6) was diluted to 0.3 μg/mL, 100 μL was added to each well, and incubated at room temperature for 1 h. The plate was washed 3 times with PBST, and then the HRP-labeled his antibody was diluted with sample diluent at 1:5000, 100 μ L was added to each well, and incubated at room temperature for 1 h. It was washed 6 times with a plate washer, and patted dry on a flat paper. TMB color developing solution was added at 100 μL/well, and wrapped with aluminum foil. Color development was performed at 37° C. in the dark for 8 min. Termination solution 1M HCl was added to terminate the color development reaction at 100 μL/well. Readings were taken at 450 nm on an ELISA reader.

T3 sequence (Q07011 24-186 limits assumed): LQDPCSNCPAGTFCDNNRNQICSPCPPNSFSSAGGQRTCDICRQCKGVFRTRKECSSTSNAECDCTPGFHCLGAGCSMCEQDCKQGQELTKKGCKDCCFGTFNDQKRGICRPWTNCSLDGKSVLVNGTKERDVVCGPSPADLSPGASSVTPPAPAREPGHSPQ
T4 sequence (Q07011 24-186 limits assumed): as above

Kd (Human-TNFR2-His [1]) [nM]	koff (Human-TNFR2-His [1]) [s⁻¹]	kon (Human-TNFR2-His [1]) [M⁻¹ s⁻¹]	EC50 (read off the curve) (Human-TNFR2-His [2]) [nM]	EC50 (read off the curve) (Human-TNFR2-His [3]) [nM]	EC50 (read off the curve) (Human-TNFR2-His [4]) [nM]	EC50 (read off the curve) (Human-TNFR2-His [5]) [nM]	EC50 (read off the curve) (Human 4-1BB His) [nM]	EC50 (read off the curve) (Human 4-1BB Fc) [nM]	EC50 (read off the curve) (Human TNFR2 mFc) [nM]	Binder
0.0724	1.86e-05	257000	~0.03	~0.03	~0.03	~0.03	–	–	–	Positive control 1 (anti-TNFR2 antibody, human IgG1) (antibody, V domains shown) VH: EVQLVQSGAEVKKPGATVKISCKVSGYSITDYLLHWVQQAPGKGLEWMGWIDPEDAKTKYGQKFQSRVTITADTSTDTAYMELSSLRSEDTAVYYCAANSGTGTMDAWGQGTLVTVSS VL: DIVMTQSPATLSVSPGERATLSCKASQNVGSNVDWYQQKPGQSPRVLIYKASIRYTGIPARFSGSGSGTEFTLTISILQSEDFAVYFCMQSKSYPITFGQGTKLEIK
–	–	–	~0.4	–	–	–	~0.2	~0.5	~0.2	Antibody A (bispecific antibody, human IgG1, kappa, IgG1 subtype; full-length 4-1BB antibody with TNFR2 scFv at the C-terminus of the heavy chains; two identical first and two identical second peptide chains) light: DIQMTQSPSSLSASLGDRVTISCSASQGISNYLNWYQQKPDGTVKLLIYYTSTLHSGVPSRFSGSGSGTDYTLTISSLQPEDIATYYCQQYSKLPWTFGGGTKLEIKRTVAAPSVFIFPPSDEQLKSGTASVVCLLNNFYPREAKVQWKVDNALQSGNSQESVTEQDSKDSTYSLSSTLTLSKADYEKHKVYACEVTHQGLSSPVTKSFNRGEC heavy: not shown
